Source: the DeepSol protein solubility set

assay: soluble on expression in E. coli; label from the status in PepcDB or PDB records

| Sequence | soluble on expression in E. coli |
| --- | --- |
| MKQEFTRIAVKVGSNVLARRDGTLDVTRMSALVDQIAELNKSGVEIILISSGAVASGRSEIHPQKKLDSVDQRQLFSAVGQAKLINRYYELFREHGIAVGQVLTTKENFSTRRHYLNQKNCMTVMLENGVIPIVNENDTISVSELMFTDNDELSGLIASMMDAQALIILSNIDGIYNGSPSDPASAVIREIEHGKDLSNYIQATKSSFGRGGMLTKTNIARKVADEGITVIIANGKRDNILVDLLQQPDDTVCTRFIPSTEAVSSVKKWIAHSEGFAKGEIHINECATDILSSEKAASILPVGITHIEGEFEKDDIVRIMDFLGNQVGVGKANCDSAQAREAMGKHGKKPVVHYDYLYIE | not soluble |
| MSLIDRFGRPLEDLRITLTHACNFECFFCHMEGEEGDNYLLSKEDILLVAKVARKFGINSVKLTGGEPTLRRDLVEIVRGLKQLGYEDVSMTTNGFLLKDLAHKLKLAGLDRINISLHAVSRDTFKKITGVDAFDRVIEGIKSAIDVGLVPVKLNFVVNRRNREEAFKFIELSQNLGVNEIHLIELHPVGLGKLAFKEHDDLREIEEYIEKISIKKLIRKKHFRPRYVLPSGLIVEVVKPYANPIFCAGCNRIRLSVDGKLKTCLYREDNVIDVLDILKGEYSEDVKEELLGRAFMIAIAIREPNFKYKIEGHHHHHH | soluble |
| MKTIKDWQINICLATYNGQKYLRQQLDSIIQQGYTDWICLIRDDGSTDDTVAIIKEYVNRDSRFIFINSNDDRKLGSHRSFYELVNYKKADFYVFSDQDDVWKENRLERYLEEAEKFNQELPLLVYSNWTSVDEKLTVLKEHNPATVIQEQIAFNQINGMVIMMNHELAKLWEYRQIGAHDSYVGTLAYAVGNVAYISDSTVLWRRQVGAESLNNYGRQYGVATFWQMINTSFDRASLIFAQVSDKMSLERKLFFSRFIELKNANLMRRIYLLSKLKLRRKSLKETVAMTILLLTGYGKPKALEHHHHHH | soluble |
| MNFLRKIVKNCKDEEIPKPGTPSAPPDDDDLWMPPPEYVPLTQIKGKENVRNFCINGEIKICSPNGYSFRILRHILKSFDNVYSGNRRLIGVVKVVIGLVLSASPVPEGMNWVYKLRRTLIFQWAESHGPLEGEELEYSQEITWDDEAEFVSLQIRVSAKQCHIQGRLWCINMNSKACQLWADMGLKTQQSQEDENTSLLLE | soluble |
| YHLSLKQVNRLFDDDMVDFGEAALRLLDLATEDQAGEDGSITEIIERSREAIQGLPLLRRESALGYALWRDGQPLLSSLNLPPEITAQGPGFSTVEAQGTHWRVLQLNIDGFQIWISENLIYRQHTMNLL | not soluble |
| MQDRNFDDIAEKFSRNIYGTTKGQLRQAILWQDLDRVLEEIGGRKLRVLDAGGGEGQTAIKMAERGHQVTLCDLSGEMIARARQAAEAKGVSKDMHFIQCPAQDVASHLESPVDLILFHAVLEWVADPVGVLETLWSVLRPGGALSLMFYNANGLLMHNMVAGNFDYVQAGMPKRKKRTLSPDYPRDPAQVYQWLEAIGWQITGKTGVRVFHDYLREKHQQRDCYETLVELETRYCRQEPYISLGRYIHVTAIKSPALAADARITYE | not soluble |
| MSAIPENANVTVLNKNEKKARELIGKLGLKQIPGIIRVTFRKKDNQIYAIEKPEVFRSAGGNYVVFGEAKVDNFTQKLAAAQQQAQASGIMPSNEDVATKSPEDIQADMQAAAEGSVNAAAEEDDEEGEVDAGDLNKDDIELVVQQTNVSKNQAIKALKAHNGDLVNAIMSLSK | soluble |
| MSLQIIEPDNLIKEGDLRSIRAKTLQSARGIISDRNGEALAVSVPVEAVWADPVAIYKEGGLVEKDRWYALADVLGLDRQEMMKKIEDNRSRRFIYLQRQVSPAMAKYIRELKLAGIGLKEESRRYYPAGEVSAHLVGVTGIDGHGLEGVERSFDSTLTGESGKSVTRKDKFGRVVENIALEEREEGKPIQLTIDQRLQAIAFRAVKQAMADYRATSASAVMLDVKTGAVLAMVNAPSYNPNNRNDWQSFKMRNRVITDAFEPGSTVKPFVVLAALANGIADKNTIIDTGDGTMQIGGSRVRDTSKVGKADLTLILKKSSNIGVAKLALEMPLEALLGMYSSVGLGEMSGLDLVGETIGIFPNRRRWSQFEIATLSFGYGLAITPIQLAHAYATLGNHGKYQPIHIIKGDQHGETRQVVDPKYVNQVLEMLETVTQPGGTATRAAVPGYRIAAKSGTSRKAIAGGYSDEYFAYTAGVAPVSDPRISLVVMVNEPQGDSYYGGAVAGPVFSEIMKGALQILNIAPDENRFQNEGHHHHHH | soluble |
| QYWDLRKTQQTGQCQSREDYYSAFRNEIQQSIRQSIRTDAEIMAHYSGGLDSSSIASIAALQLAKENKTLMAYTAIPKYLSGDSHRKGCKYHELDRVQSACRYYDNIETIVYQSSEDLSIFDKLQVFYPYLDQPFKAVFNMEWILAGLEMAAAKNCRILLNGEQGNGSISWKGVTLGNYLNQRVKFTRHLLKYHMKLGKQFIKSGSLNLKKNRTDLNEMKKNFLEPHYSLLRGKNRLETRSYMRSIYLWFGVEVIDPTSNLDLVQFCYDLPEWVYHGGNKYFEIRRLPKLKRRLLVRDALEGLVPPEIRHNPYRGEQAADWYYQFNKYGHAWGRLLADIAEKHPLIWEIYPKKYLLDLFANHPISPQSRNFQDVNMHLVPALSTAFFINYLNDLY | not soluble |
| MQGLQLPQIYFSAAERRPKFVMKTGLSATEKNEVIKAAYRQIFERDITRAYSLSISDLESKVKNGDISMKEFVRRLAKSPLYQKQFYQPFINSRVIELAFRHILGRGPSSREEVQKYFSIISNGGLPALVDALVDSAEYSDYFGEETVPYLRGLGQEALEHHHHHH | not soluble |
| MSLSRLLNDFNQSLKKGFIDKDISHKGNYTPKLLVNNKNEKVLSTIIDELQKCETFYFSVAFITESGLASLKAQLLDLSNKGVKGKILTSNYLGFNSPKMYGELLKLKNVEVRLTDIAGFHAKGYIFEHKDYSSMVIGSSNLTSNALKVNYEHNVLLSTMKNGDLVDSVKNEFELLWQKSTPLTEQWINSYKESFEYRSLEKLAEVEQTQMLLADKVKKSVEIVPNLMQAEALRSLKAIRDKTKDKALIISATGTGKTILCALDVREVNPNKFLFIVHNEGILNRAKEEFKKVLPIKNDSDFGLLTGKHRDVDAKYLFATIQTLSRDDNFKQFDENEFDYIVFDEAHRSAASTYQRVFNYFKPKFMLGMTATPERSDELSIFELFDYNIAYEIRLQAALESDILCPFHYFGVTDYVHQGIKEDDVTKLRYLTSDERVNYIIQKTDEGHHHHHH | not soluble |
| MGSDKIHHHHHHMRYRRFGRTELAMPVFSCGGMRYQQSWKDVDWPEISVESQANLEATLARSLELGINHIETARYYGSSERQLGKALAAYPRSEIILQTKVPPSEDPAEFLETFDRSMSLLQTDYVDLLSIHGVNNAELLDWALRKGGSLDVAERLQAEGRVRHIGFSTHAPLPVILEAIASDRLSYINLHWYYIFQTNQAALEAAQKHDMGVFIISPSDKGGHLYSPPQKLVDLCEPLHPMVFNDLFCLSQPQIHTLSIGAARPSDFDRHLETLPLLDQADQVLPPILERLEAAATAALGQDWLDTWMVGLPTPDTTPGEINIPTIVWLYNLVQAFDMVKYAKARYNLLGNGGHWFPGQRAGQFDPVALSAALDQSPHRDRILQILKEMDAWLGGESVVRLSQSS | not soluble |
| MGHHHHHHSHPKQEKLLSLAGDSLFWSEADVVQATDDFNQNRKISQGTFADVYRGHRHGKPFVFKKLRETACSSPGSIERFFQAELQICLRCCHPNVLPVLGFCAARQFHSFIYPYMANGSLQDRLQGQGGSDPLPWPQRVSICSGLLCAVEYLHGLEIIHSNVKSSNVLLDQNLTPKLAHPMAHLCPVNKRSKYTMMKTHLLRTSAAYLPEDFIRVGQLTKRVDIFSCGIVLAEVLTGIPAMDNNRSPVYLKDLLLSDIPSSTASLCSRKTGVENVMAKEICQKYLEKGAGRLPEDCAEALATAACLCLRRRNTSLQEVCGSVAAVEERLRGRETLL | not soluble |
| MKLEIGYNHPFEIRKERYESDHVCNFSVLYISDLHLTVFSKDICTRLSKCIQELNPTIIILGGDYIDCRNGWDYLSTFFKFLSARKNVFSIAGNHDYFYGIDEIKKLIESNNIHWLENQSAVVNIQEYNILLTGNNETQSSIPADFNILCLHKPVSLDAFKIPYHIAFAGHLHGCQCVFWQNENGLYPGRFFYTFNFLRRQVKNCLYLISKGLGDTLPIRFNCKKDIIFVEIKNNSNKLEHHHHHH | not soluble |
| MRKMKSLYLAIQQHESRRWSPVAKVTKNGGVYRLVYTKGAWEVPGFSGFARMEDLYQEYRSAEIFPILKNRTLPRSRPEYQNYILWLGLSPEEHDELDELARSGGIRATDQIELIPAPERKEDGSFEAFFFVRGISYIPGTADIDLKIGDRLFVMKDFQNEQDSAALLLRTGDPVSVVGYAPRYYSHDLSRLAELCPPQDLLVTVERLNNNAPAAYKVLCKVVAPWPAGFDFFGSHVFDEVPKAPVSLEHHHHHH | not soluble |
| MSLARCERLRGAALRDVLGRAQGVLFDCDGVLWNGERAVPGAPELLERLARAGKAALFVSNNSRRARPELALRFARLGFGGLRAEQLFSSALCAARLLRQRLPGPPDAPGAVFVLGGEGLRAELRAAGLRLAGDPSAGDGAAPRVRAVLVGYDEHFSFAKLREACAHLRDPECLLVATDRDPWHPLSDGSRTPGTGSLAAAVETASGRQALVVGKPSPYMFECITENFSIDPARTLMVGDRLETDILFGHRCGMTTVLTLTGVSRLEEAQAYLAAGQHDLVPHYYVESIADLTEGLEDEGHHHHHH | soluble |
| MSKLVGNLIPNTFFITKGSGESDLELHAGSYHMALFDAGISDFNIMTYSSVLPATAHLATMDEIDLPPFGSELKTIMAVSHGYQDEFVSAGVVYAWMYKDENFDEKAGGLVCEVSGRYRIEELESRLIRVINDLHQKTYSQYYLGELNFITEGITIEKRYGTALAGLCFMDFIQPEVQKK | not soluble |
| MTSLIGTHSGKFHCDEAFACFMLKQLPQFKDHSILRTRDAAQLEKCDIIVDVGGIFDHSKQRYDHHQRGFTDTMRTLEKLNFDTKLSSAGLVYAHYGREVINQILGGNVSSSMIDLFYHRLYEQFVESIDAIDNGISQYDGVPRYHSSGNLSSRTGQFNSHWNEPENDADERFQQAMQFIGEEFSRSVKYLANVWWPAREIIEAAVDKRFEIDASGRIILIENGGCPWKEHFFDIEVEKNIADDNITYILFSDSTNASWRVQAIPVDKMSSFENRMPLPAAWRGLRDDDLSKESGIPGGVFVHISGFIGGNLTREGAIAMARKALEIGEENPVKKAKLGN | soluble |
| MGSDKIHHHHHHMSHVSYAEPPAQGWDIHCHTVFSDGTETPRTLVEQARKLGLHGVAIADHDTTAGWDEATEASEEIGLPLLLGTEITAVDEDVSVHMLAFQYDPSNEHISSMFANTRAARLRRTKRMVERLSQDFPITWDDVLAQVKEGERTTIGRPHIADALVAAGVYETRSDAFADAVSAKSKYYIPTPSPSTHEVIAAVKGAGGVVVAAHAGDPQRNRRLLSDEQLDAMIADGLDGLEVWHRGNPPEQRERLLTIAARHDLLVTGGSDWHGKGKPNGLGENLTDDDTVREILCRGVDLIGRVGSSHAA | not soluble |
| MYTAEQKARIKWACRRGMLELDVVIMPFFEECFDSLTESEQDDFVALLESDDPDLFAWVMGHGRCENLGLAAMVDKIVAHNLSKVRLEHHHHHH | soluble |
